From US20090053203A1

Target: receptor for advanced glycated end products (RAGE) (human) (UniProt Q15109)
Assay: cell-based or functional assay
Details: scale: relative to saline-treated controls

Sequence of receptor for advanced glycated end products (RAGE) (human) (Q15109 23-404): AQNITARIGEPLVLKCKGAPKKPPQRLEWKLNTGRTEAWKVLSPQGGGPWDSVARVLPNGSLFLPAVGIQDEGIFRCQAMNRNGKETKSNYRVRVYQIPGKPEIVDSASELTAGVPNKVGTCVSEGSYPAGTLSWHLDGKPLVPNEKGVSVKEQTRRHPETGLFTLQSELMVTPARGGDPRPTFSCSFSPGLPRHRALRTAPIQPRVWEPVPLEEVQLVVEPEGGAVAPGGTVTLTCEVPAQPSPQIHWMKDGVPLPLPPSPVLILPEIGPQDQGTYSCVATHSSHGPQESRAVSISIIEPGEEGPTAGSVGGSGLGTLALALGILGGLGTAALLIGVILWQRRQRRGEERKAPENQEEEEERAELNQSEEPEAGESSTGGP

- Phospbo-PKCa/bII (T638/641) (ELISA, 293 kidney cells, 4 hr): 1.52
- Phospho-ATF2 (T71) (ELISA, 293 kidney cells, 4 hr): 1.61
- Phospho-Akt (S473) (ELISA, 293 kidney cells, 4 hr): 1.92
- Phospho-Akt (T308) (ELISA, 293 kidney cells, 4 hr): 1.06
- Phospho-ERK (T202/Y204) (ELISA, 293 kidney cells, 4 hr): 1
- Phospho-IRS1 (S307) (ELISA, 293 kidney cells, 4 hr): 1.56
- Phospho-IRS2 (S731) (ELISA, 293 kidney cells, 4 hr): 1.03
- Phospho-JNK (T183/Y185) (ELISA, 293 kidney cells, 4 hr): 1.38
- Phospho-PKCmu (S916) (ELISA, 293 kidney cells, 4 hr): 0.95
- Total Akt1 (ELISA, 293 kidney cells, 4 hr): 1.27
- Total Akt2 (ELISA, 293 kidney cells, 4 hr): 0.81
- Total IRS-1 (ELISA, 293 kidney cells, 4 hr): 1.07
- Total IRS-2 (ELISA, 293 kidney cells, 4 hr): 1.47
- Total collagen-IV (ELISA, 293 kidney cells, 4 hr): 1.34
Substance: glycated hemoglobin (ligand)
